Measured values from article doi:10.1101/2020.11.13.382242.
Values joined by “and” are separate entries in the source; they are usually repeats but may differ in a detail not shown here. Equal values may be shown once.

Legend:
Assay in all cases: fluorescence fluctuation spectroscopy
[1] = molecular target: HIV-1 capsid particles self-assembled from CA [change] (disulfide cross-linked cones and tubes) (HIV-1)
[2] = molecular target: Full-length GFP-CPSF6 (isoform 2; cell-free expressed, N-terminal GFP tag)
[3] = molecular target: AF568-labelled HIV-1 capsid particles co-assembled from CA [change] and CA [change]-AF568 (HIV-1)

Full-length GFP-CPSF6 (isoform 2; cell-free expressed, N-terminal GFP tag), sequence (Q16630 whole entry, canonical isoform): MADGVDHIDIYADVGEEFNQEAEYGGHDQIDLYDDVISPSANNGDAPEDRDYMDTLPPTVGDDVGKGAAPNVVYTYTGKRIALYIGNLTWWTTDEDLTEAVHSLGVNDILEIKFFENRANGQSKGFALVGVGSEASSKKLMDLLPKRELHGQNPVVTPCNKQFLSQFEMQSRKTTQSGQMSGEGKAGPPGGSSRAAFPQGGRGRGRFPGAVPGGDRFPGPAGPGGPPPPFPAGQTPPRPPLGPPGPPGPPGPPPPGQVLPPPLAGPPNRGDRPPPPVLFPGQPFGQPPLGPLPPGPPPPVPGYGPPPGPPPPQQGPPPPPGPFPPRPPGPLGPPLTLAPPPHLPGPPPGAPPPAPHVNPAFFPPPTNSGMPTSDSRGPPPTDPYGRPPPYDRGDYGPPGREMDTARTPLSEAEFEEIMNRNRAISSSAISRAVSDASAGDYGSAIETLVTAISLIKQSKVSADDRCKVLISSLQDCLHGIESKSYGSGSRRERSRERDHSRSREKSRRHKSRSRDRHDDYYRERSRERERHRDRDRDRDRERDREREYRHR

| Substance | fold increase in the brightness parameter in the presence of capsid [1] [fold] | fold increase in the brightness parameter compared to monomeric GFP [2] | Kd [3] [µM] | analyte:CA intensity ratio relative to CPSF6-AF488 [3] [fold] |
| --- | --- | --- | --- | --- |
| Full-length GFP-CPSF6 (isoform 2; cell-free expressed, N-terminal GFP tag) (natural protein) | 10 | 4 fold and 8 fold | – | – |
| Untagged recombinant CypA labelled with Alexa Fluor 488-C5 maleimide (from UniProt P62937 1-165) (natural protein) | – | – | 16.5 | 5 |
